Test results taken from patent US20130210888.

Columns and labels:
[1] = system: His-tagged full length (1-482aa) human CoREST
[2] = system: CoREST del 2 (aa 293-482), His-tagged

How did the “demethylation of nucleosomal substrates by LSD1 (Western blot with K4-H3 methylation-specific antibodies)” value [1] turn out when “histidine epitope-tagged LSD1 (HIS-LSD1), full length (1-851aa) human LSD1” was run?
Its value is “addition of CoREST to the demethylation reaction restored the ability of recombinant LSD1 to demethylate nucleosomal substrates”.

And the “stimulation of LSD1 demethylation activity (nucleosomal substrates)” value [2]?
The value was “sufficient to mediate stimulation of LSD1 demethylation activity to a level that is comparable to that of the wildtype CoREST”.
